For 1 substance, EC50 of CXCL12 for Gi1 activation, one representative experiment of Fig. 1D results are on record in article PMC7330677.

The target in one assay is CXCR4-FlAsH228 (human) (UniProt P61073).
In the next assay the target is Human CXCR4 (human) (UniProt P61073).

Regarding “Recombinant human CXCL12 (from UniProt P48061 22-93) (ligand)”, the EC50 of CXCL12 for Gi1 activation, one representative experiment of Fig. 1D with CXCR4-FlAsH228 (human) amounted to 14.7 nM; in the assay with Human CXCR4 (human) it was 3.3 nM.
